Publication PMC7948458

Legend:
Experiment in all cases: EMSA
[1] = biological target: OGG1 WT (UniProt O15527); details: EMSA: 0.1 nM DNA, 0.5-4000 nM OGG1, 25 mM Tris-HCl pH 7.6, 175 nM NaCl (sic), 1 mM EDTA, 1 mM DTT, 300 ug/ml BSA, 12% glycerol, 15 min, 4 C
[2] = biological target: OGG1 C241S C241S (UniProt O15527); details: EMSA: 0.1 nM DNA, 0.5-4000 nM OGG1, 25 mM Tris-HCl pH 7.6, 175 nM NaCl (sic), 1 mM EDTA, 1 mM DTT, 300 ug/ml BSA, 12% glycerol, 15 min, 4 C
[3] = biological target: OGG1 C146S C146S (UniProt O15527); details: EMSA: 0.1 nM DNA, 0.5-4000 nM OGG1, 25 mM Tris-HCl pH 7.6, 175 nM NaCl (sic), 1 mM EDTA, 1 mM DTT, 300 ug/ml BSA, 12% glycerol, 15 min, 4 C
[4] = biological target: OGG1 C28S C28S (UniProt O15527); details: EMSA: 0.1 nM DNA, 0.5-4000 nM OGG1, 25 mM Tris-HCl pH 7.6, 175 nM NaCl (sic), 1 mM EDTA, 1 mM DTT, 300 ug/ml BSA, 12% glycerol, 15 min, 4 C
[5] = biological target: OGG1 C255S C255S (UniProt O15527); details: 8-oxoguanine at position 16 of strand 1, opposite C; EMSA: 0.1 nM DNA, 0.5-4000 nM OGG1, 25 mM Tris-HCl pH 7.6, 175 nM NaCl (sic), 1 mM EDTA, 1 mM DTT, 300 ug/ml BSA, 12% glycerol, 15 min, 4 C
[6] = biological target: OGG1 C253S C253S (UniProt O15527); details: 8-oxoguanine at position 16 of strand 1, opposite C; EMSA: 0.1 nM DNA, 0.5-4000 nM OGG1, 25 mM Tris-HCl pH 7.6, 175 nM NaCl (sic), 1 mM EDTA, 1 mM DTT, 300 ug/ml BSA, 12% glycerol, 15 min, 4 C
[7] = biological target: OGG1 C140S C140S (UniProt O15527); details: 8-oxoguanine at position 16 of strand 1, opposite C; EMSA: 0.1 nM DNA, 0.5-4000 nM OGG1, 25 mM Tris-HCl pH 7.6, 175 nM NaCl (sic), 1 mM EDTA, 1 mM DTT, 300 ug/ml BSA, 12% glycerol, 15 min, 4 C
[8] = 8-oxoguanine at position 16 of strand 1, opposite C
[9] = tetrahydrofuran abasic analog at position 16 of strand 1 (written N), opposite base Y is C or A, not stated for this assay (written N)

Chain of OGG1 WT (O15527 whole entry): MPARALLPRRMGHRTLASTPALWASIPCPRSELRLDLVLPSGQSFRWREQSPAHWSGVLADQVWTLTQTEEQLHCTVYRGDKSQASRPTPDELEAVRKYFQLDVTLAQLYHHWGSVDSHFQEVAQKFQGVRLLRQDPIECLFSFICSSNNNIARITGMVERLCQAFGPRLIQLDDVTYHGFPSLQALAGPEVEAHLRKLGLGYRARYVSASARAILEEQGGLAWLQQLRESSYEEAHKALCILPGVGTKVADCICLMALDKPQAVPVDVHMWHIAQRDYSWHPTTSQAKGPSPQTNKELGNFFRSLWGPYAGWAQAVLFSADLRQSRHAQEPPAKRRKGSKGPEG
Chain of OGG1 C28S C28S (O15527 whole entry C28S): as the sequence (O15527 whole entry) above, with C28S counted along it
Chain of OGG1 C241S C241S (O15527 whole entry C241S): as the sequence (O15527 whole entry) above, with C241S counted along it
Chain of OGG1 C146S C146S (O15527 whole entry C146S): as the sequence (O15527 whole entry) above, with C146S counted along it
Chain of OGG1 C253S C253S (O15527 whole entry C253S): as the sequence (O15527 whole entry) above, with C253S counted along it
Chain of OGG1 C255S C255S (O15527 whole entry C255S): as the sequence (O15527 whole entry) above, with C255S counted along it
Chain of OGG1 C140S C140S (O15527 whole entry C140S): as the sequence (O15527 whole entry) above, with C140S counted along it

## CGTTCAACGTGCACTGACAGCACGTCCCAT (double strand) [8-oxoG:C 30-mer duplex]
[1]; [8]
  Kd: 1.9 nM
[2]; [8]
  binding signal (fold increase in Kd vs WT): 10
[3]; [8]
  binding signal (fold increase in Kd vs WT): 10
[4]; [8]
  binding signal (fold increase in Kd vs WT): 10
[5]
  binding signal (fold increase in Kd vs WT): 10
[6]
  binding signal (fold increase in Kd vs WT): 10
[7]
  binding signal (fold increase in Kd vs WT): 10

## CGTTCAACGTGCACTNACAGCACGTCCCAT (double strand) [THF 30-mer duplex]
[1]; [9]
  Kd: 0.6 nM
[2]; [9]
  Kd: 3.5 nM
[3]; [9]
  Kd: 9.9 nM
[4]; [9]
  Kd: 2.2 nM

## CGTTCAACGTGCACTGACAGCACGTCCCAT / ATGGGACGTGCTGTAAGTGCACGTTGAACG [8-oxoG:A 30-mer duplex]
[1]; 8-oxoguanine at position 16 of strand 1, opposite A
  Kd: 201 nM
